Test results as given in the supplement of paper PMC9732359.
± gives the uncertainty stated by the source.

Test: protein stability index of a GFP-peptide fusion (yeast GPS) (PSI 1-4); higher = more stable; sorted into four equal gates, so the index is relative within each strain
Procedure, shortened: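 Tiled 17-residue yeast protein peptides were fused downstream of GFP in a plasmid that also expresses Cherry, and the pooled library was carried in yeast. Mid-log cultures in leucine-free medium were sorted into four equal gates by GFP/Cherry fluorescence ratio, and plasmids from each gate were PCR-amplified and Illumina-sequenced, with reads assigned to strains by barcodes. The protein stability index for each peptide was each gate's read frequency times its gate number, summed.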

Sequence	protein stability index (doa10∆)	protein stability index (pdr5∆)	protein stability index (san1∆)	protein stability index (ubr1∆)
LPLNKPRLEKLINEILL [RGR1]	2.53 ± 0.051	2.33 ± 0.041	2 ± 0.077	2.48 ± 0.041
TGALINNLEPRQTTSNT [RPN11]	3.12 ± 0.1	3.25 ± 0.15	2.62 ± 0.15	3.02 ± 0.076
RMERIKDHLLLEEEFVS [RPT2]	2.24 ± 0.12	2.22 ± 0.097	2.09 ± 0.13	2.23 ± 0.1
ALECRLASAIASGLLRA [CSN12]	1.58 ± 0.072	2.08 ± 0.082	1.77 ± 0.1	1.94 ± 0.075
PWCVKPEYLAMYGLTME [ITC1]	2.27 ± 0.065	3.03 ± 0.071	2.79 ± 0.081	2.07 ± 0.073
KAAFIRVNGSEFVHKYL [RPT3]	2.22 ± 0.062	2.46 ± 0.073	2.15 ± 0.087	2.77 ± 0.08
FKVQELLHSKPSLLLQK [NAS6]	2.23 ± 0.13	2.3 ± 0.074	2.64 ± 0.14	2.31 ± 0.084
EILRIHSRKMNLTRGIN [RPT6]	2.85 ± 0.06	2.99 ± 0.071	2.29 ± 0.075	2.52 ± 0.06
FAEENITHKLTKNDAGS [BRR2]	3.26 ± 0.084	3.22 ± 0.07	2.88 ± 0.055	3.46 ± 0.1
VSLEERTKNLVSKMEKA [SMC4]		2.95 ± 0.064		
TETLTSKKIVPSPKKVA [SIR4]	2.77 ± 0.089	2.87 ± 0.083	2.63 ± 0.066	2.55 ± 0.12
NDANITSNKEGFNSIWK [SSN2]	3.17 ± 0.077	3.26 ± 0.079	3.3 ± 0.051	3.09 ± 0.069
GSLNATNFSPTPANNGE [SNF2]	2.93 ± 0.055	3.07 ± 0.061	2.76 ± 0.049	3.04 ± 0.051
DILLCYQKLFSQFINDH [SRB8]	2.37 ± 0.034	2.64 ± 0.037	2.64 ± 0.042	1.84 ± 0.034
NAANVPVENIWADIFAK [RPP1A]	2.2 ± 0.083	2.51 ± 0.11	2.48 ± 0.1	2.34 ± 0.081
SCTLLERGHPKDNARIY [POP1]	1.87 ± 0.056	2.15 ± 0.064	2.76 ± 0.055	2.99 ± 0.063
NEWIKAQEDVPYLLPYI [QCR7]	2.42 ± 0.095	2.46 ± 0.078	2.6 ± 0.077	2.5 ± 0.056
EQVLSAAATFPIAQPAT [RPL13A]	2.66 ± 0.059	2.24 ± 0.057	1.74 ± 0.084	2.54 ± 0.043
YKLTNDEEGIFSRFVDQ [YCG1]	2.94 ± 0.12	2.83 ± 0.13	3 ± 0.085	2.94 ± 0.057
ANNDINSLLSNFNDIPP [YDL088C/ASM4]	2.56 ± 0.097	2.87 ± 0.18	2.67 ± 0.27	3.13 ± 0.14

Sequence	protein stability index (doa10∆)	protein stability index (pdr5∆)	protein stability index (san1∆)	protein stability index (ubr1∆)
KIAVLNNDKREIQEELE [SMC1]	3.23 ± 0.067	3.37 ± 0.056	3.32 ± 0.039	3.25 ± 0.047
TGAGKGSIGAEVLQGLL [FAS2]	3.48 ± 0.088	3.56 ± 0.063	3.47 ± 0.066	2.96 ± 0.067
EKKAASAKQTAPNNSNG [MED7]	2.94 ± 0.15	3 ± 0.13	2.95 ± 0.14	2.41 ± 0.24
NEDLEDGHYIEENSQGN [REC8]		3.37 ± 0.27		
LEGITTTIDSLNAELES [SMC3]	1.57 ± 0.088	1.77 ± 0.15	2.27 ± 0.17	3.14 ± 0.1
GSKLEDMSKILVDQGFN [RET1]	3.14 ± 0.066	3.2 ± 0.072	3.31 ± 0.034	3.29 ± 0.049
PMPIITFLSEWGMEPLE [RPB2]	2.7 ± 0.06	2.96 ± 0.09	2.51 ± 0.08	2.76 ± 0.071
SIYKYIHLNELLTNDES [SNF12]	2.54 ± 0.063	2.71 ± 0.053	2.19 ± 0.071	2.63 ± 0.084
TTVFFSRQKSGLFDSFT [YML031W/NDC1]	1.49 ± 0.042	1.45 ± 0.055	1.54 ± 0.11	1.55 ± 0.048
NDELVELLANKCPLLVE [GRR1]	2.08 ± 0.058	2.13 ± 0.04	2.1 ± 0.078	1.96 ± 0.035
KDIFRYMQRTVEEAHDF [RPB2]	2.24 ± 0.075	1.45 ± 0.046	1.91 ± 0.12	1.3 ± 0.045
PIPIPAFADRLGQYVQA [PRE10]	2.21 ± 0.08	1.95 ± 0.062	1.75 ± 0.11	2.07 ± 0.097
PHTPVTRKGYIPSSKYA [YLR018C/POM34]	3.15 ± 0.065	3.18 ± 0.089	2.96 ± 0.082	3.07 ± 0.052
KMDFSSKEGQYKAKIKE [YIL149C/MLP2]	3.2 ± 0.074	3.27 ± 0.071	3.17 ± 0.063	3.16 ± 0.048
FIVVPDLLKNAPLFKKN [SMD3]	2.07 ± 0.053	1.57 ± 0.042	1.66 ± 0.11	1.32 ± 0.035
LVEARSLGHQTSLITAV [MTR3]	2.69 ± 0.08	1.97 ± 0.067	2.79 ± 0.082	1.25 ± 0.064
SPTPIQRITIPNVCNMK [PRP28]	1.99 ± 0.074	2.16 ± 0.063	2.04 ± 0.068	2.09 ± 0.057
IAKSRYWYFLQKLHKVK [RPL20A]	3.06 ± 0.11	3.06 ± 0.087	2.79 ± 0.075	3.03 ± 0.084
KSSFVKESAVISKQKSK [SMC1]	2.18 ± 0.1	2.34 ± 0.046	2.26 ± 0.064	2.37 ± 0.037
EGPKKCIQVNCLNCEKS [SNM1]	2.62 ± 0.079	2.04 ± 0.058	2.8 ± 0.073	2.22 ± 0.049
